Measurements reported in US20220251154A1 (HANGZHOU SUMGEN BIOTECH, published 2022).

Legend:
PD-L1-Fc = target: T1, PD-L1-Fc (UniProt Q9NZQ7 19-239, limits assumed); assay: competition ELISA: PD-L1-Fc coated, Biotin-Fc-PD1 (1 ug/ml) added with the binder; blocks PD-1/PD-L1
T1 construct: not shown: Fc part

[1] = target: T2, biotin-labeled CD47 (Biotin-Fc-CD47) (UniProt Q08722 19-139, limits assumed, biotin-labeled (site not stated)); assay: competition ELISA: SIRPα-His coated, Biotin-Fc-CD47 (2 ug/ml) pre-incubated with the binder; blocks CD47/SIRPα
T2 construct: not shown: Fc part
T2 sequence (Q08722 19-139 limits assumed): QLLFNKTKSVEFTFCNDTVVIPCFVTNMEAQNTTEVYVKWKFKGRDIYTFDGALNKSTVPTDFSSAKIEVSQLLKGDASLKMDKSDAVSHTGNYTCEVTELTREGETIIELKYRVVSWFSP

T1 sequence (Q9NZQ7 19-239 limits assumed): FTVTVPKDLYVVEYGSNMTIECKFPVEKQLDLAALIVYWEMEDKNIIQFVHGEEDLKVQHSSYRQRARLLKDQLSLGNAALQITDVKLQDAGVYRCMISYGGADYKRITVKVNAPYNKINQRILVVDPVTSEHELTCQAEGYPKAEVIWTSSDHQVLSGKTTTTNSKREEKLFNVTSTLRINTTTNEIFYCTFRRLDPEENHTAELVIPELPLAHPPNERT

B1: fusion protein SG12474 (bispecific antibody, human IgG1, kappa, N297A)
heavy: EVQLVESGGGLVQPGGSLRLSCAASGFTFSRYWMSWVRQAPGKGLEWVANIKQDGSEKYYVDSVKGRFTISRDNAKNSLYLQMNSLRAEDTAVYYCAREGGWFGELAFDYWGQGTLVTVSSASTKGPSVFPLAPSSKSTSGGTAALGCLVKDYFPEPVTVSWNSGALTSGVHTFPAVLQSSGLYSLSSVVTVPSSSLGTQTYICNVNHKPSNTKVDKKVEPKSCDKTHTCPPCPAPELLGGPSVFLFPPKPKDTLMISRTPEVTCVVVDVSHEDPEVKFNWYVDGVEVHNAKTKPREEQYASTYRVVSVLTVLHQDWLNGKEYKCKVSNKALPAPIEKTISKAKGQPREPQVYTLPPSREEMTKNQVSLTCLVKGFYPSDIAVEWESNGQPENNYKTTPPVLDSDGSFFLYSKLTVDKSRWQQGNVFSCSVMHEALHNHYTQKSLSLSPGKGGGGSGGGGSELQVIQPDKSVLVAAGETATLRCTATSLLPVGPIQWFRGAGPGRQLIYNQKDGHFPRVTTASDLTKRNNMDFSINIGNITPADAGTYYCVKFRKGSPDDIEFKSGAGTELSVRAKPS
light: EIVLTQSPGTLSLSPGERATLSCRASQRVSSSYLAWYQQKPGQAPRLLIYDASSRATGIPDRFSGSGSGTDFTLTISRLEPEDFAVYYCQQYGSLPWTFGQGTKVEIKRTVAAPSVFIFPPSDEQLKSGTASVVCLLNNFYPREAKVQWKVDNALQSGNSQESVTEQDSKDSTYSLSSTLTLSKADYEKHKVYACEVTHQGLSSPVTKSFNRGEC
notes: First polypeptide chain is the SG1202 light chain
Binder B1 has an IC50 (PD-L1-Fc) of 9.12 nM and an IC50 [1] of 0.77 nM.
